US20260193317A1, “COMBINATION THERAPY WITH ACTRIIB RECEPTOR VARIANTS AND GLP-1 AGONISTS” (35PHARMA Inc., priority 2023, published 2026)

B1: P1375 (Fc fusion)
chain: ETRECIYYNANWELERTNQSGLERCEGEQDKRWHCYASWRNSSGTIELVKKGCWLDDFNCYDRQECVATEENPQVYFCCCEGNFCNERFTHLPEAGGPEVTYEPPPTGGGGSGGGGSGGGGSGGGGTHTCPPCPAPELLGGPSVFLFPPKPKDTLYITREPEVTCVVVDVSHEDPEVKFNWYVDGVEVHNAKTKPREEQYNSTYRVVSVLTVLHQDWLNGKEYKCKVSNKALPAPIEKTISKAKGQPREPQVYTLPPSRDELTKNQVSLTCLVKGFYPSDIAVEWESNGQPENNYKTTPPVLDSDGSFFLYSKLTVDKSRWQQGNVFSCSVMHEALHNHYTQKSLSLSPG
B2: P1375: hActRIIB L33W, 19 aa linker, IgG1 YTE-DL Fc; SEQ ID 234 (protein)
chain: B1 chain

What was measured:
[1] = Single-injection body weight gain in wild-type mice; format: in vivo; details: single 25 mg/kg subcutaneous injection, after 4 days, vs vehicle
Method: To investigate the target engagement of exemplary ActRIIB-ECD polypeptide constructs in vivo, mice (n=6/group) were injected with given agents (25 mg/kg, subcutaneous injection), and sacrificed after 4 days to assess body weight gain.

[2] = Skeletal muscle mass and Mss51 expression in lean mice; format: in vivo; details: 25 mg/kg twice weekly, seven days
Method: The effects of P1229 on body composition and metabolism in lean mice were further assessed.
Additional assays were performed to assess the relative expression level of Mss51, a skeletal muscle-specific gene. Mss51 is a key target of myostatin signaling, with a role in fatty acid oxidation, glycolysis, and oxidative phosphorylation.

[3] = SEC-HPLC monomer and HMW content of purified fusion proteins; format: physicochemical; details: after Protein A purification
Text: Given that protein aggregation can be indicative of reduced conformational stability and decreased activity, Size-Exclusion Chromatography-High Performance Liquid Chromatography (SEC-HPLC) was used to determine the purity of each ActRIIB-ECD construct. This method measured the percentage of intact monomeric species as well as the presence of aggregates and/or degradation products.
All proteins expressed efficiently in CHO and/or 293 cells and purification efficiency of each using Protein A affinity chromatography was similar.

[4] = system: diet-induced obese (DIO) mice; test: Body composition and metabolism in diet-induced obese (DIO) mice; format: in vivo; details: 3 weeks s.c., P75, P1229 25 mg/kg twice weekly, P1373 5, 20, 50 mg/kg twice weekly, P1307 20 mg/kg weekly
Method: Experiments were performed to assess the effects of P1229 on body composition and metabolism in diet-induced obese (DIO) mice. DIO mice were purchased from Jackson Laboratories (#380050). Briefly, mice were fed a high-fat diet (HFD, 60% kcal from fat) from 6 weeks of age until 22 weeks of age (total of 16 weeks on the HFD). […] After 3 weeks of treatments, some animals were sacrificed and scanned by EchoMRI […] (FIGS. 11A-F), while others were sacrificed for tissue collection and RNA analysis. Animals were maintained on the HFD throughout the acclimatization and treatment periods. The murine version of bimagrumab used for these experiments comprises the heavy chain amino acid sequence of SEQ ID NO: 376 and the light chain sequence of SEQ ID NO: 377.

[5] = molecular target: T1, BMP-10 (UniProt O95393 317-424); test: cell-based or functional assay
T1 sequence (looked up): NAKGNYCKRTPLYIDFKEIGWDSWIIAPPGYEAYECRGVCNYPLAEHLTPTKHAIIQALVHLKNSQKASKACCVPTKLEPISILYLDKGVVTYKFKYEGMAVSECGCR

[6] = molecular target: T2, BMP-9 (UniProt Q9UK05 320-429); test: cell-based or functional assay
T2 sequence (looked up): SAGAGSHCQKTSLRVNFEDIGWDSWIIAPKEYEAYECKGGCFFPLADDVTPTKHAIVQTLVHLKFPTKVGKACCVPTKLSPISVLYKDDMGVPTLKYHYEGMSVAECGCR

[7] = molecular target: T3, activin B (UniProt P09529 293-407); test: cell-based or functional assay
T3 sequence (looked up): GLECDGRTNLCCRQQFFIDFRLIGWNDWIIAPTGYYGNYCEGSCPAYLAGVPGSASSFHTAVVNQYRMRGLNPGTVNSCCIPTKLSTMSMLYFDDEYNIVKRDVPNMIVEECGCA

[8] = molecular target: GDF-11 (UniProt O95390 299-407); test: cell-based or functional assay
[9] = molecular target: T4, recombinant human activin A (human, UniProt P08476 311-426); test: cell-based or functional assay
T4 sequence (looked up): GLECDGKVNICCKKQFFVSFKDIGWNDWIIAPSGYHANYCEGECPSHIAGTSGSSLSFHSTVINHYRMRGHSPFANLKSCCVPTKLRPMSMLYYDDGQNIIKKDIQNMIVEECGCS

[10] = molecular target: GDF-8 (UniProt O14793 267-375); test: cell-based or functional assay
[11] = molecular target: T5, BMP-9 (Homo sapiens, UniProt Q9UK05); test: Small-scale BMP-9 ELISA with CHO supernatants; format: binding; details: BMP-9 10 ng/mL
T5 sequence (Q9UK05 320-429): T2 sequence (looked up)
Method: Small-scale testing of ActRIIB-ECD fusion proteins. Additional investigation of a series of exemplary agents was performed using proteins expressed in CHO cells. Briefly, DNA encoding the ActRIIB-ECD-Fc fusion constructs was transfected in cells seeded in 12-well plates in a final volume of 1 ml. After 7 days, the supernatant was harvested, clarified, and the amount of expressed protein in each well was quantified using standard methods. The potency of each agent for inhibition of activin A, BMP-9 and BMP-10 was determined in three separate assays.
The next day, the plate was washed three times. […] Expressed proteins in the supernatants were diluted 1 in 2 in assay diluent (0.5% BSA, 0.05% tween-20 in PBS) and 100 μl was added to the 96-well plate in technical duplicates. After a 1.5-hour incubation at RT, the plate was washed three times. […] In this assay, a loss of signal indicates less binding of the exemplary agent to BMP-9. Results are expressed as a % of the signal obtained with wild-type ActRIIB-Fc (P75).

[12] = system: TGFβ superfamily ligands; test: Neutralization profile across TGFβ superfamily ligands (HEK293 and HepG2 reporter assays, summary); format: cell-based, human
Method: Potency testing by neutralization on cell-based assays. Characterization of the activin A, activin B, GDF-8, and GDF-11 inhibition potency (IC50) of the fusion proteins was performed using a cell-based reporter assay. TGFβ-reporter HEK293 cells were obtained from InvivoGen (San Diego, CA, cat. no. hkb-tgfb) and were maintained following the manufacturer's instructions. Briefly, cells were grown in high-glucose DMEM, containing 10% heat-inactivated FBS, 30 μg/mL blasticidin, 250 μg/mL hygromycin B, and 100 μg/mL zeocin (hereafter, “growth medium”). Once the cells reached 70-80% confluence, they were detached in growth medium by gently tapping on the flask. For all assays, cells were seeded in 96-well plates at a density of 20,000 cells per well in growth medium. Cells were left to attach for 10 minutes at room temperature (RT) prior to being transferred to a 37° C. incubator (5% CO2) overnight. The next day, treatments were prepared by combining the appropriate concentration of agent with activin A, activin B, GDF-8, or GDF-11 for 30 min at RT (shaking at 150 rpm). Treatments were conducted in high-glucose DMEM (serum-free and with no selection agents), and the final concentration of cytokine (ligand) was 0.3 nM. Growth medium was removed from the culture plates, and cells were treated with the appropriate mixes of fusion protein and cytokine. Treatment duration was for 18-22 h at 37° C. (5% CO2). All treatments were performed in technical duplicates and at least one or two independent experiments were conducted for each cytokine. At the end of the treatment period, supernatants were transferred to a new plate, and centrifuged at 300 RPM for 3 min. Forty microlitres of supernatant from each condition was transferred to a new plate, into which 180 μL of Quanti-Blue reagent (InvivoGen, cat. no. rep-qbs) was added. Quanti-Blue reagent was prepared following the manufacturer's instructions. Samples were incubated for 45 min at 37° C. At the end of the incubation, absorbance was read at 650 nm. The data were plotted in GraphPad Prism, which was used to calculate IC50 values as a non-linear regression.
Characterization of the BMP-9 and BMP-10 inhibition potency (IC50) of the fusion proteins was performed using a second cell-based reporter assay. Human hepatic HepG2 cells were transfected with a SEAP-encoding plasmid, in which SEAP expression is under the control of the murine Id1 promoter. A stable pool was generated from this transfection. Cells were grown in EMEM, containing 10% heat-inactivated FBS and 200 μg/mL zeocin (hereafter, “HepG2 growth medium”). […] For all assays, cells were seeded in 96-well plates at a confluence of 100,000 cells per well in HepG2 growth medium. Cells were left to attach for 10 minutes at RT prior to being transferred to a 37° C. incubator (5% CO2) overnight. The next day, treatments were prepared in EMEM (2.5% heat-inactivated FBS and with no selection agents) by combining the appropriate concentration of agent with BMP-9 or BMP-10 for 30 min at RT (shaking at 150 rpm). Treatments were conducted in EMEM (2.5% heat-inactivated FBS and with no selection agents), and the final concentration of BMP-9 and BMP-10 was 2 ng/mL and 40 ng/mL, respectively. HepG2 growth medium was removed from the culture plates, and cells were treated with the appropriate mixes of fusion protein and cytokine. Treatment duration was for 20-24 h at 37° C. (5% CO2). […]

GDF-11, sequence (O95390 299-407 limits assumed): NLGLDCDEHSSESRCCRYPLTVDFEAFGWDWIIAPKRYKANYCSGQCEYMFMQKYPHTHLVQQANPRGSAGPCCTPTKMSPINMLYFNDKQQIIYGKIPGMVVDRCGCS

Molecule	body weight gain [1]	tibialis anterior and gastrocnemius weight [2]	high molecular weight (HMW) content (SEC-HPLC) [3] [%]	monomer content (SEC-HPLC) [3] [%]	fat mass and lean mass (EchoMRI) [4]	BMP-10 IC50; BMP-reporter HepG2 cells [5] [nM]	BMP-9 IC50; BMP-reporter HepG2 cells [6] [nM]	Activin B IC50; TGFβ-reporter HEK293 cells [7] [nM]	GDF-11 IC50; TGFβ-reporter HEK293 cells [8] [nM]	Activin A IC50; TGFβ-reporter HEK293 cells [9] [nM]	GDF-8 IC50; TGFβ-reporter HEK293 cells [10] [nM]	BMP-9 binding, ELISA signal relative to P75 [11]	impact of modifications in the Fc sequence on activin A, activin B, GDF-8, and GDF-11 potency ([12]; all ligands)	impact of modifications in the Fc sequence on BMP-9 and BMP-10 potency ([12]; both ligands)
P75: human wild type ActRIIB-ECD linked to human IgG1 Fc domain by a triple glycine linker; SEQ ID NO: 171; benchmark [reference compound]	statistically significant body weight gain	significantly increased	16	84	promoted lean mass gain but less fat loss	–	–	–	–	–	–	–	–	–
B1	–	–	–	–	–	> 100	> 1000	2	0.39	0.53	0.33	–	–	–
B2	–	–	0	99	–	–	–	–	–	–	–	near-undetectable binding to BMP-9	comparable to P1373	comparable to P1373
